Columns and labels:
[1] = biological target: YFV X-SS-prME-XX (yellow fever virus 17D) (yellow fever virus strain 17D) (UniProt P03314)
[2] = biological target: influenza HA protein (Flu A HA) (influenza A)

Sequence of UniProt P03314 (P03314 92-788 limits assumed): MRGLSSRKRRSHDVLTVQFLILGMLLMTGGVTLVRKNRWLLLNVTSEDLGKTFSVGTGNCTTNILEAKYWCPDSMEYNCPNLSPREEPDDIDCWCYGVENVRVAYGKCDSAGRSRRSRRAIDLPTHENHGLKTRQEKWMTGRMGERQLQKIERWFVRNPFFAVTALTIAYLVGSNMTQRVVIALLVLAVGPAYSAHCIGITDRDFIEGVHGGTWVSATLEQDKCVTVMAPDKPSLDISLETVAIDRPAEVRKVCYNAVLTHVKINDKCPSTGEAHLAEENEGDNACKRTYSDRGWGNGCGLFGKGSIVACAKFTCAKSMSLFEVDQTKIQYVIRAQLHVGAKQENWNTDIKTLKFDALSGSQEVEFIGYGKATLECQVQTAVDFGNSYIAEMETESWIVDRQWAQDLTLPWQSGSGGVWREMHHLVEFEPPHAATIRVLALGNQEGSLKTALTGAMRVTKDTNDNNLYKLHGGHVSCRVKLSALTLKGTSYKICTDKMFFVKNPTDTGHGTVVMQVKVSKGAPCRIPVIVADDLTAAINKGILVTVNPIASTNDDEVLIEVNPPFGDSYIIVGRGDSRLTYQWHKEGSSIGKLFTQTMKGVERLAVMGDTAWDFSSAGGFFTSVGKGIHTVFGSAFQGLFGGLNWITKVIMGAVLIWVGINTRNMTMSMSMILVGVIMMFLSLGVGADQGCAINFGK

## anti YF virus specific antibody (sc-58083 from Santa Cruz)
[1]
  FITC positive cells: 82%
[2]
  FITC positive cells: 45.1%

Source: US11931406
